Test results as given in patent US20050142137A1 (CURAGEN, published 2005).
Numbering of substitutions follows the chain as printed.

B1: 35F1 (antibody, human IgG2, V domains shown)
VH: QVQLQESGPGLVKPSQTLSLTCTVSGGSIKSGDYYWSWVRQLPGKGLEWIGYIYYSGSTYYNPSLKSRVTISIDTSKNQFSLKLSSVTAADTAVYYCAREGSYYDSGGFDYWGQGTLVTVSS
VL: not shown
notes: Fully human, XenoMouse XMG2; also called #50; Cur12.1 PL35 F1
B2: 42C1 (antibody, human IgG2, V domains shown)
VH: B1 VH with G27V, K30S, D33G, V39I, L42H, I73V, Y95F, S102E, S106E
VL: not shown
notes: Fully human, XenoMouse XMG2; also called #24; Cur12.1 PL42 C1
B3: 43H7 (antibody, human IgG2, V domains shown)
VH: QVQLVESGGGVVQPGRSLRLSCAASGFTFSTYGMHWVRQAPGKGLEWVTFIWYDGRNKYYADSVKGRFTVSRDNSKNTLYLQMNSLRAEDTAVYYCARGDDYGDYHPHYYYYGLDVWGQGTTVTVSS
VL: DIVMTQTPLSLSVTPGQPASISCKSSQSLLDSDGKTYLYWYLQKPGQPPQLLIYEVSNRFSGVPDRFSGSGSGTDFTLKISRVEAEDVAYYYCMQSIQLPWTFGQGTKVEIK
notes: Fully human, XenoMouse XMG2; also called #11; Cur12.1 PL43 H7
B4: 9G12 (antibody, human IgG2, V domains shown)
VH: B3 VH with T31G, T49A, D54N, R56N, N57D, K58N, A61T, V70I, L114M
VL: B3 VL with V88I, A89G, Y90V, M94L
notes: Fully human, XenoMouse XMG2; also called #36; Cur12.1 PL09 G12

Columns and labels:
[1] = target: T1, SLPI of human tumour cell lines (endogenous; on cells or in conditioned media) (human, UniProt P03973 26-132); assay: cell-based or functional assay
T1 sequence (P03973 26-132 limits assumed): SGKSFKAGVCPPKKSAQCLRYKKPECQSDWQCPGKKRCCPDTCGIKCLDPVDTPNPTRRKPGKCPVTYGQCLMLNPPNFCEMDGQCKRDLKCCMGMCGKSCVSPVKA

[2] = target: T2, recombinant human SLPI (Secretory leukocyte protease inhibitor), R&D Systems Cat#260-PI (human, UniProt P03973 25-131, biotinylated in the streptavidin-plate ELISAs and on SRBCs); assay: limiting antigen ELISA, biotinylated SLPI coated at 200 ng/ml
T2 construct: Bought protein; also called biotinylated SLPI; B-Cur12
T2 sequence (P03973 25-131): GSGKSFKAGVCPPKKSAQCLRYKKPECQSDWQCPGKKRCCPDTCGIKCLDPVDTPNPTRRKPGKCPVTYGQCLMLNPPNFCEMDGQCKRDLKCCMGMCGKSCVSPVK
Description: (§1) The limiting antigen analysis is a method that affinity ranks the antigen-specific antibodies in B cell culture supernatants. […] Each plate was washed 5 times with dH₂O, before 46 μl/well of 1% milk in PBS with 0.05% sodium azide was added, followed by 4 μl/well of B cell supernatant. After 22 hours at RT on a shaker, the plates were again washed 5 times with dH₂O. Goat anti-Human (Fc)-HRP at 1 μg/ml, 50 μl/well was added. After 1 hour at RT, the plates were again washed 5 times with dH₂O and 50 μl/well of TMB substrate was added. The reaction was stopped by the addition of 50 μl of 1M phosphoric acid to each well and the plates were read at wavelength 450 nm. 42C1, 43H7, 35F1 and 9G12 were chosen for further evaluation and cloning.

[3] = target: T2, recombinant human SLPI (Secretory …); assay: limiting antigen ELISA, biotinylated SLPI coated at 400 ng/ml
Description: as §1

[4] = target: T2, recombinant human SLPI (Secretory …); assay: limiting antigen ELISA, biotinylated SLPI coated at 800 ng/ml
Description: as §1

[5] = target: T2, recombinant human SLPI (Secretory …); assay: ELISA, SLPI (60 ng/ml) + supernatant on plate-bound chymotrypsin
Description: Antibodies were screened for ability to inhibit SLPI activity. The assay involves assessing SLPI binding to chymotrypsin and resultant inhibition of chymotrypsin enzyme activity in the presence or absence of antibody. Biotinylated bovine chymotrypsin (5 μg/ml) was incubated with streptavidin coated plates for 30 minutes at RT. Each plate was washed 5 times with dH₂O prior to addition of an anti-SLPI antibody mixture (30 μl of SLPI reconstituted in 100 mM Tris, 10 mM CaCl₂ and 0.1% HSA pH 7.5 mixed with 20 μl of monoclonal antibody supernatant being tested; final concentration SLPI 60 ng/ml; incubated for 1 hour at RT) and plates were incubated for 1 hour. Plates were washed 5 times with dH₂O then incubated with 50 μl of a polyclonal Goat anti-SLPI (purchased from R&D) at 1 μg/ml/well for 1 hour. After washing, 50 μl of a rabbit anti-goat HRP-conjugated antibody/well was added and incubated for 1 hour. After washing, 50 μl of TMB substrate/well was added.. The reaction was stopped by adding of 50 μl of 1M phosphoric acid/well. Plates were read at wavelength 450 nm.

[6] = target: T1, SLPI of human tumour cell lines …; assay: flow cytometry, 42C1 at 170 nM on OVCAR-4 cells
Description: (§2) FACS analysis of anti-SLPI antibody binding to OVCAR4, OVCAR-5, OVCAR-8, SK-OV-3, A2780, SF294, 786-0 cell lines was done as follows. Suspended cells were washed twice with ice-cold FACS buffer (SOURCE) and incubated with antibody 42C1 (170 nM/FACS buffer) for 1 hr then washed. Cells were incubated with a 1:500 dilution in FACS buffer of […] donkey anti-human IgG (H+L) (Jackson Immunolabs) for 30 minutes. Cells were washed and then fixed with 1% formaldehyde in PBS. Analysis was done using a FACS Calibur™ flow cytometer (Becton Dickinson, Frankin Lakes, N.J.).
(§3) 42C1 antibody bound SLPI on SLPI expressing ovarian cancer cell lines: OVCAR-4 (Geo Mean Ratio 37), OVCAR-5 (Geo Mean Ratio 10), and OVCAR-8 (Geo Mean Ratio 35) as compared to SLPI negative cell line 786-0 (Geo Mean Ratio 3).

[7] = target: T1, SLPI of human tumour cell lines …; assay: flow cytometry, 42C1 at 170 nM on OVCAR-5 cells
Description: as §2, §3

[8] = target: T1, SLPI of human tumour cell lines …; assay: flow cytometry, 42C1 at 170 nM on OVCAR-8 cells
Description: as §2, §3

| Binder | IC50 of growth inhibition of IGROV-1 cells, clonogenic assay [1] | IC50 of growth inhibition of SW480 cells, clonogenic assay [1] | OD [2] | OD [3] | OD [4] | % Max [5] | O.D. [5] | Geo Mean Ratio [6] | Geo Mean Ratio [7] | Geo Mean Ratio [8] |
| --- | --- | --- | --- | --- | --- | --- | --- | --- | --- | --- |
| B1 | 163 nM | 85 nM | 0.24 OD450 | 0.3 OD450 | 0.37 OD450 | 47% | 0.35 OD450 | – | – | – |
| B2 | 121 nM | 85 nM | 3.69 OD450 | 3.58 OD450 | 3.85 OD450 | 103% | 0.762 OD450 | 37 | 10 | 35 |
| B3 | – | – | 3.52 OD450 | 4.02 OD450 | 4.1 OD450 | 90% | 0.666 OD450 | – | – | – |
| B4 | – | – | 1.36 OD450 | 2.19 OD450 | 2.25 OD450 | 61% | 0.452 OD450 | – | – | – |
